These results are taken from patent publication US20130115279A1 (IMMUNOCELLULAR THERAPEUTICS, published 2013).

In assay [1] the target is T1, HLA-A*0201 (human).
T1 construct: Class I MHC molecule of the ProImmune REVEAL assay; also called HLA-A2
Briefly: REVEAL MHC binding assay, incorporation into MHC relative to positive control peptide.

For assay [2], the target named is T1, HLA-A*0201. The assay can be described thus: REVEAL off rate analysis of peptide-MHC pentamers, 37 C, 0, 2 and 24 h; * 24 h interval too short for an accurate value. The method, then: (§1) The pentamers were subjected to incubation and analysis at 37° C. to determine the stability of peptide-MHC complexes. Off-rates of the complexes were measured by REVEAL™ off rate analysis (ProImmune Ltd., Oxford, UK) after 0, 2, and 24 hours of incubation at 37° C.

Assay [3] deals with T1, HLA-A*0201. Briefly: REVEAL off rate analysis of peptide-MHC pentamers, 37 C, 0, 2 and 24 h. As to the method:
as §1

Assay [4] addresses T2, HLA-A*0301 (human).
T2 construct: Class I MHC molecule of the ProImmune REVEAL assay; also called HLA-A3
Briefly: REVEAL MHC binding assay, incorporation into MHC relative to positive control peptide.

The target in assay [5] is T2, HLA-A*0301. The assay can be described thus: REVEAL off rate analysis of peptide-MHC pentamers, 37 C, 0, 2 and 24 h. The method, then:
as §1

In assay [6] the target is T3, HLA-A*0101 (human).
T3 construct: Class I MHC molecule of the ProImmune REVEAL assay; also called HLA-A1
The assay can be described thus: REVEAL MHC binding assay, incorporation into MHC relative to positive control peptide.

In assay [7] the target is T3, HLA-A*0101. The assay can be described thus: REVEAL off rate analysis of peptide-MHC pentamers, 37 C, 0, 2 and 24 h. The method, then:
as §1

For assay [8], the target named is T2, HLA-A*0301. The assay can be described thus: REVEAL off rate analysis of peptide-MHC pentamers, 37 C, 0, 2 and 24 h; * 24 h interval too short for an accurate value. The method, then: as §1

A value given as a limit tells only on which side of the number the result lay.

B1: CD133 peptide FLLPALIFA (SEQ ID NO:21) (peptide)
peptide: FLLPALIFA
notes: synthetic nine-residue peptide of human CD133 (ProImmune)
Consider B1, for which the “% Positive Control” value in assay [1] is 93.6%. In addition, the “t1/2” value in assay [2] was more than 120 h.

B2: CD133 peptide SLDFAQNFI (SEQ ID NO:15) (peptide)
peptide: SLDFAQNFI
notes: as for B1
In the case of B2, in assay [3], the “t1/2” value is 15.5 h. Besides, the “% Positive Control” value in assay [1] is 115%.

B3: CD133 peptide LSSSLTSVK (SEQ ID NO:8) (peptide)
peptide: LSSSLTSVK
notes: as for B1
As for B3, the “% Positive Control” value in assay [4] is 52.5%. Moreover, the “t1/2” value in assay [5] amounted to 1.8 h.

B4: CD133 peptide LVLGSLLLL (SEQ ID NO:17) (peptide)
peptide: LVLGSLLLL
notes: as for B1
For the molecule B4, in assay [3], the “t1/2” value turned out to be 8.25 h. Moreover, the “% Positive Control” value in assay [1] came out at 102%.

B5: CD133 peptide ELVHIFLYV (SEQ ID NO:16) (peptide)
peptide: ELVHIFLYV
notes: as for B1
Regarding B5, the “t1/2” value in assay [3] came out at 6.86 h. Moreover, the “% Positive Control” value in assay [1] came out at 156%.

B6: CD133 peptide ILCCVLGLL (SEQ ID NO:19) (peptide)
peptide: ILCCVLGLL
notes: as for B1
For the molecule B6, the “t1/2” value in assay [3] came out at 5.63 h. Further, the “% Positive Control” value in assay [1] came to 163%.

B7: CD133 peptide NLFWFGIGK (SEQ ID NO:9) (peptide)
peptide: NLFWFGIGK
notes: as for B1
Consider B7, for which the “% Positive Control” value in assay [4] stood at 53.1%. In addition, the “t1/2” value in assay [5] turned out to be 3.35 h.

B8: CD133 peptide RVLDTPYLL (SEQ ID NO:14) (peptide)
peptide: RVLDTPYLL
notes: as for B1
On to B8, for which the “t1/2” value in assay [3] was 3.51 h. The “% Positive Control” value in assay [1] is 165%.

B9: CD133 peptide VLDEIKSMA (SEQ ID NO:10) (peptide)
peptide: VLDEIKSMA
notes: as for B1
Take B9: the “t1/2” value in assay [3] is 1.43 h. For the same molecule, the “% Positive Control” value in assay [1] amounted to 309%.

B10: CD133 peptide GLLERVTRI (SEQ ID NO:20) (peptide)
peptide: GLLERVTRI
notes: as for B1
Turning to B10, the “% Positive Control” value in assay [1] came to 131%. Besides, the “t1/2” value in assay [2] was 74.3 h.

B11: CD133 peptide SSELESLKV (SEQ ID NO:2) (peptide)
peptide: SSELESLKV
notes: as for B1
For B11, the “% Positive Control” value in assay [6] is 74.1%. Further, the “t1/2” value in assay [7] came out at 0.46 h.

B12: CD133 peptide SQLNSNPEL (SEQ ID NO:18) (peptide)
peptide: SQLNSNPEL
notes: as for B1
With B12, the “t1/2” value in assay [3] amounted to 2.37 h. The “% Positive Control” value in assay [1] was found to be 123%.

B13: CD133 peptide RTRIKRSRK (SEQ ID NO:7) (peptide)
peptide: RTRIKRSRK
notes: as for B1
For B13, in assay [4], the “% Positive Control” value is 87.3%. In addition, the “t1/2” value in assay [5] was found to be 23.9 h.

B14: CD133 peptide FITNNTSSV (SEQ ID NO:13) (peptide)
peptide: FITNNTSSV
notes: as for B1
B14: the “t1/2” value in assay [3] came out at 20 h. In addition, the “% Positive Control” value in assay [1] was found to be 107%.

B15: CD133 peptide YLQWIEFSI (SEQ ID NO:11) (peptide)
peptide: YLQWIEFSI
notes: as for B1
B15: the “% Positive Control” value in assay [1] turned out to be 113%. In assay [2], the “t1/2” value was 83 h.

B16: CD133 peptide AVDVFLCSY (SEQ ID NO:1) (peptide)
peptide: AVDVFLCSY
notes: as for B1
As for B16, the “% Positive Control” value in assay [6] was found to be 58.6%. Further, in assay [7], the “t1/2” value is 20.7 h.

B17: CD133 peptide IIDPLNLFW (SEQ ID NO:3) (peptide)
peptide: IIDPLNLFW
notes: as for B1
As to B17, in assay [6], the “% Positive Control” value was 91.5%. Besides, the “t1/2” value in assay [7] was determined as 0.35 h.

B18: CD133 peptide NLLSFAYDL (SEQ ID NO:12) (peptide)
peptide: NLLSFAYDL
notes: as for B1
As to B18, the “t1/2” value in assay [3] was 1.83 h. The “% Positive Control” value in assay [1] came out at 180%.

B19: CD133 peptide KLFNKSKMK (SEQ ID NO:4) (peptide)
peptide: KLFNKSKMK
notes: as for B1
In the case of B19, the “% Positive Control” value in assay [4] came to 80.8%. Also, in assay [8], the “t1/2” value came out at 27.8 h.

B20: CD133 peptide ILAQYNTTK (SEQ ID NO:5) (peptide)
peptide: ILAQYNTTK
notes: as for B1
In the case of B20, the “% Positive Control” value in assay [4] amounted to 46.6%. The “t1/2” value in assay [5] amounted to 2.07 h.

B21: CD133 peptide YLSGKLFNK (SEQ ID NO:6) (peptide)
peptide: YLSGKLFNK
notes: as for B1
Regarding B21, the “% Positive Control” value in assay [4] amounted to 46.9%.
